Consider one molecule from patent publication US20210261685A1 (Alector, published 2021).

For this experiment, the target named is T1, human Axl ECD construct (Full Axl) with linker+His+Avi tag (human, UniProt P30530 26-451).
T1 construct: tested as Expi293 supernatant; also called ECD domain of human Axl
T1 sequence: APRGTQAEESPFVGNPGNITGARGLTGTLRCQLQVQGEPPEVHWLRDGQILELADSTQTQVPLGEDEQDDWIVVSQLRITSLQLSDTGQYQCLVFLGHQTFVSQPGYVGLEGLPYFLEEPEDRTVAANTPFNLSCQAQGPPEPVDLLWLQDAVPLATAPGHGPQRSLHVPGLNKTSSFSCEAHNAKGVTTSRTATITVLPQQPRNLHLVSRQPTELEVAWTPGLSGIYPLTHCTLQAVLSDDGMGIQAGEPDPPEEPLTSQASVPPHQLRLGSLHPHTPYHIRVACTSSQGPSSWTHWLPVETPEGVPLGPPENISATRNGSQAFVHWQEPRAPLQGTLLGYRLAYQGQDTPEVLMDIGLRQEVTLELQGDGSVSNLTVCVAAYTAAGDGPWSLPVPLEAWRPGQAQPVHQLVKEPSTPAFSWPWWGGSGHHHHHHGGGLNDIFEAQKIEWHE
The experiment is described as follows: SPR, Carterra LSA, antibody immobilised, construct supernatant injected. How it is done:
Binding of anti-MerTK antibodies of the present disclosure to these domain-swapped chimera or deletion mutants (prepared as described above) was tested by Surface Plasmon Resonance (SPR) using Carterra LSA. Purified anti-MerTK antibodies were immobilized in duplicate on a HC30M chip (Carterra) by amine coupling, following the manufacturer's instructions (described previously). Supernatants containing the constructs were diluted 1:1 with running buffer containing 0.5 mg/mL BSA (HBS-TE, Carterra) and injected over the immobilized antibodies. The surface was regenerated with 10 mM Glycine pH2.0 after each construct injection. Sensorgrams were analyzed using Carterra Epitope software to identify patterns of construct binding. Loss of binding to MerTK constructs with domains deleted or swapped in from Axl and/or gain of binding to Axl constructs with MerTK domains swapped in were evaluated. Data from these studies was used to construct a domain binding map for anti-MerTK antibodies and their binding to various domains of human MerTK.

B1: MTK-25 (antibody, human IgG1, V domains shown)
VH: EVKLVESEGGLVQPGSSMKLSCTASGFTFSDYYMAWVRQVPEKGLEWVANINYEGSSTYYLGSLKSRFIISRDNAENILYLQMSSLKSEDTATYYCARYYYGSVDYWGQGTTLTVSS
VL: DIVMTQSQKFMSTSVGDRVSITCKASQNVRTTVAWYQQKPGQSPKTLIYLASNRHTGVPDRFTGSGSGTDFTLTISNVQSEDLADYFCLQLWNYPWTFGGGTKLEIK
In the case of B1, the binding result was “no binding”.
